{"source": "patent US20250353921A1", "about": "(ASTRIA THERAPEUTICS, published 2025)", "key": {"human OX40-CRD-avi-his": {"target": "T1, human OX40-CRD-avi-his (human, UniProt P43489 29-170, limits assumed)", "T1 construct": "Only the CRD region of the ECD was used", "T1 sequence": "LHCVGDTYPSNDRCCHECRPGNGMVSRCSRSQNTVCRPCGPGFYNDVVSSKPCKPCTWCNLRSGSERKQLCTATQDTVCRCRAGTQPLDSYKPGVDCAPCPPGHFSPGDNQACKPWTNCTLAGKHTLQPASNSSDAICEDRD", "test": "SPR Biacore T200, ratio of KD values"}, "cynomolgus OX40-ECD-his [1]": {"target": "T2, cynomolgus OX40-ECD-his (cynomolgus)", "T2 construct": "extracellular domain; also called Cyno OX40", "test": "SPR Biacore T200, ratio of KD values"}, "cynomolgus OX40-ECD-his [2]": {"target": "T2, cynomolgus OX40-ECD-his", "test": "SPR, affinity for the extracellular domain (ECD) of cynomolgus monkey OX40"}, "[3]": {"target": "Human CD64 (FcγRI), Sino Biological 10256-H08H (human, UniProt P12314 16-288)", "sequence (P12314 16-288 limits assumed)": "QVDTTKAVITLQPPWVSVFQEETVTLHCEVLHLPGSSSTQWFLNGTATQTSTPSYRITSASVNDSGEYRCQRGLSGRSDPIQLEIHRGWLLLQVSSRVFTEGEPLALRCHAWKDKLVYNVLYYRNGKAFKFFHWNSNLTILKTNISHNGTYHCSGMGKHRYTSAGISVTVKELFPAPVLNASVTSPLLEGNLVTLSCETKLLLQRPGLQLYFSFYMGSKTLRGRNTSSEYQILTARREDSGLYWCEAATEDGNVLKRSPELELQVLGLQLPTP", "test": "SPR Biacore 8K+, ratio of KD values"}, "[4]": {"target": "T3, Human CD16a (176F), Sino Biological 10389-H08H (human, UniProt P08637 17-208)", "T3 construct": "also called FcγRIIIa176F", "T3 sequence (P08637 17-208 limits assumed)": "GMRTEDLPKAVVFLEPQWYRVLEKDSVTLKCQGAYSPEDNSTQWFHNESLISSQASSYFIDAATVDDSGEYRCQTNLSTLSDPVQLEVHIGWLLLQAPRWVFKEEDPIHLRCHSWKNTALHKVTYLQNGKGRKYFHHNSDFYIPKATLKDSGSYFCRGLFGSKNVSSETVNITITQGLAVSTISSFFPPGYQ", "test": "SPR Biacore 8K+, ratio of KD values"}, "[5]": {"target": "T4, Human CD16a (F176V), Sino Biological 10389-H08H1 (human, UniProt P08637 17-208)", "T4 construct": "also called FcγRIIIa176V", "T4 sequence (P08637 17-208 F176V limits assumed)": "as the sequence (P08637 17-208 limits assumed) above, with F160V counted along it", "test": "SPR Biacore 8K+, ratio of KD values"}, "[6]": {"target": "T5, Human CD16b (NA2 allotype), Sino Biological 11046-H08H (human, UniProt O75015 17-200)", "T5 construct": "also called FcγRIIIb", "T5 sequence (O75015 17-200 N65S limits assumed)": "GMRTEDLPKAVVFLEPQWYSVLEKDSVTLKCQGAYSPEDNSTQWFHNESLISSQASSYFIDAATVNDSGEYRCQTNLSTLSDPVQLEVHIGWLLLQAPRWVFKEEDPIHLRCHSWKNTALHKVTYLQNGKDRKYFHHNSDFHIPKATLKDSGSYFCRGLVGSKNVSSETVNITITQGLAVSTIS", "test": "SPR Biacore 8K+, ratio of KD values"}, "[7]": {"target": "T6, Human CD32a (167 His), Sino Biological 10374-H08H1 (human, UniProt P12318 34-218)", "T6 construct": "also called FcγRIIa167H", "T6 sequence (looked up)": "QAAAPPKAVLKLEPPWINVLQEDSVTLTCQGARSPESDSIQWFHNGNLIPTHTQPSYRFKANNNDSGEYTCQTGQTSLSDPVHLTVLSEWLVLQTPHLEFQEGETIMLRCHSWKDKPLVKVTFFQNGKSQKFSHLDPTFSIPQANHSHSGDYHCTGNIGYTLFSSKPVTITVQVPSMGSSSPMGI", "test": "SPR Biacore 8K+, ratio of KD values"}, "[8]": {"target": "cynomolgus monkey (cy) OX40 protein (Example 5) (cynomolgus monkey)", "test": "ELISA on coated OX40, ratio of EC50 values"}, "rabbit (rb) OX40 protein": {"target": "T7, rabbit (rb) OX40 protein (rabbit)", "T7 construct": "also called Rabbit OX40", "test": "ELISA on coated OX40, ratio of EC50 values"}, "mouse (mo) OX40 protein": {"target": "T8, mouse (mo) OX40 protein (mouse, UniProt P47741 20-211)", "T8 construct": "also called Mouse OX40", "T8 sequence (looked up)": "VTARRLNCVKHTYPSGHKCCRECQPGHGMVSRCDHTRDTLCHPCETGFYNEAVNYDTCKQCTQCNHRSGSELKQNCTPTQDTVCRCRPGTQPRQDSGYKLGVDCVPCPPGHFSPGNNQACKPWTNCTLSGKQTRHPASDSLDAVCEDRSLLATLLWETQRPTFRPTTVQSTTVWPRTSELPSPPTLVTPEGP", "test": "SPR single cycle kinetics, MAB10 captured"}, "rat (ra) OX40 protein": {"target": "T9, rat (ra) OX40 protein (rat, UniProt P15725 20-210, limits assumed)", "T9 construct": "also called Rat OX40", "T9 sequence (looked up)": "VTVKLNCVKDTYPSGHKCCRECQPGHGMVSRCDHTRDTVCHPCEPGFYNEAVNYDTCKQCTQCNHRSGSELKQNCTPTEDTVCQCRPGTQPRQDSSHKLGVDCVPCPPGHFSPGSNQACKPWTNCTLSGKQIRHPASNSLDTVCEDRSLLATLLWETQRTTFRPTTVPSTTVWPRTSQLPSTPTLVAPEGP", "test": "SPR single cycle kinetics, MAB10 captured"}, "[9]": {"target": "T10, Human FcRn protein (Acro Biosystems, catalog NO: FCN-H52W7) (human, UniProt P55899 24-297; P61769 21-119)", "T10 construct": "also called huFcRn", "T10 sequence (P55899 24-297 limits assumed, chain 1 of 2)": "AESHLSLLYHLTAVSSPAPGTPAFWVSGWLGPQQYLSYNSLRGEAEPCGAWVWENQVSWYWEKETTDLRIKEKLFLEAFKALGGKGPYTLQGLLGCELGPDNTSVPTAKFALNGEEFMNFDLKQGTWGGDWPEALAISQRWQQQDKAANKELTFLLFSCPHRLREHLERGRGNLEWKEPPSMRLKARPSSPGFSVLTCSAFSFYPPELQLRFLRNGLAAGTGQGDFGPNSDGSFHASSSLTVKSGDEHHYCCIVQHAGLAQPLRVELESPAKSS", "T10 sequence (P61769 21-119 limits assumed, chain 2 of 2)": "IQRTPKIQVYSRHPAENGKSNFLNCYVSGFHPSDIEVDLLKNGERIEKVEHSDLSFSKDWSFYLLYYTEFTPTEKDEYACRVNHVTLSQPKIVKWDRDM", "test": "SPR Biacore 8K+, antibody immobilised, FcRn analyte, pH 6.0; pH 6.0; ratio of the KD of MAB1 to that of MAB10"}}, "note": "Values joined by “and” are separate entries in the source; they are usually repeats but may differ in a detail not shown here. Equal entries are not always repeated."}
{"binder": "MAB1 IgG1 (antibody, Human IgG1, kappa) heavy: not shown light: EIVLTQSPATLSLSPGERATLSCRASSSVSYMHWYQQKPGQAPRPWIYATSNRATGIPARFSGSGSGTDYTLTISSLEPEDFAVYYCQQFGAWPWTFGQGTKVEIKRTVAAPSVFIFPPSDEQLKSGTASVVCLLNNFYPREAKVQWKVDNALQSGNSQESVTEQDSKDSTYSLSSTLTLSKADYEKHKVYACEVTHQGLSSPVTKSFNRGEC", "values": [{"measurement": "fold increase in affinity (KD GBR 830 / KD MAB1)", "setting": "human OX40-CRD-avi-his", "result": 13.4, "unit": "fold"}, {"measurement": "fold increase in affinity (KD GBR 830 / KD MAB1)", "setting": "cynomolgus OX40-ECD-his [1]", "result": 5.5, "unit": "fold"}]}
{"binder": "GBR 830 (telazorlimab) (antibody, human IgG1, kappa, IgG1; also called Antibody 830; ISB830) heavy: not shown light: EIVLTQSPATLSLSPGERATLSCRASSSVSYMHWYQQKPGQAPRPWIYATSNRATGIPARFSGSGSGTDYTLTISSLEPEDFAVYYCQQWSSNPWTFGQGTKVEIKRTVAAPSVFIFPPSDEQLKSGTASVVCLLNNFYPREAKVQWKVDNALQSGNSQESVTEQDSKDSTYSLSSTLTLSKADYEKHKVYACEVTHQGLSSPVTKSFNRGEC", "values": [{"measurement": "Kd", "setting": "cynomolgus OX40-ECD-his [2]", "result": "5 µM and 3 µM"}]}
{"binder": "MAB10 (antibody, human IgG1, kappa, MAB1 with M252Y, S254T and T256E (EU numbering) in the IgG1 Fc; also called MAB1 Heavy Chain + YTE) heavy: QVTLKESGPALVKPTQTLTLTCSFSGFSLSTSGMGVGWIRQPPGKALEWIAHIWWDDDKYYNTALKTRLTISKDTSKNQVVLTMTNMDPVDTATYYCARIDWDGFAYWGQGTLVTVSSASTKGPSVFPLAPSSKSTSGGTAALGCLVKDYFPEPVTVSWNSGALTSGVHTFPAVLQSSGLYSLSSVVTVPSSSLGTQTYICNVNHKPSNTKVDKKVEPKSCDKTHTCPPCPAPELLGGPSVFLFPPKPKDTLYITREPEVTCVVVDVSHEDPEVKFNWYVDGVEVHNAKTKPREEQYNSTYRVVSVLTVLHQDWLNGKEYKCKVSNKALPAPIEKTISKAKGQPREPQVYTLPPSRDELTKNQVSLTCLVKGFYPSDIAVEWESNGQPENNYKTTPPVLDSDGSFFLYSKLTVDKSRWQQGNVFSCSVMHEALHNHYTQKSLSLSPGK light: EIVLTQSPATLSLSPGERATLSCRASSSVSYMHWYQQKPGQAPRPWIYATSNRATGIPARFSGSGSGTDYTLTISSLEPEDFAVYYCQQFGAWPWTFGQGTKVEIKRTVAAPSVFIFPPSDEQLKSGTASVVCLLNNFYPREAKVQWKVDNALQSGNSQESVTEQDSKDSTYSLSSTLTLSKADYEKHKVYACEVTHQGLSSPVTKSFNRGEC", "values": [{"measurement": "fold-change of KD relative to MAB1", "setting": "[3]", "result": 1.6, "unit": "fold"}, {"measurement": "fold-change of KD relative to MAB1", "setting": "[4]", "result": 3, "unit": "fold"}, {"measurement": "fold-change of KD relative to MAB1", "setting": "[5]", "result": 2.7, "unit": "fold"}, {"measurement": "fold-change of KD relative to MAB1", "setting": "[6]", "result": 4.3, "unit": "fold"}, {"measurement": "fold-change of KD relative to MAB1", "setting": "[7]", "result": 3.1, "unit": "fold"}, {"measurement": "fold EC50 against human OX40", "setting": "[8]", "result": 4, "unit": "fold"}, {"measurement": "fold EC50 against human OX40", "setting": "rabbit (rb) OX40 protein", "result": 8, "unit": "fold"}, {"measurement": "binding result", "setting": "mouse (mo) OX40 protein", "result": "no binding"}, {"measurement": "binding result", "setting": "rat (ra) OX40 protein", "result": "no binding"}, {"measurement": "fold increase of the binding constant against MAB1", "setting": "[9]", "result": 8.8, "unit": "fold"}]}
